Measurements from patent US20210139579A1.

Target: human ROR1 (hROR1) on the cell surface (human) (UniProt Q01973)
Assay: cell-based or functional assay

human ROR1 (hROR1) on the cell surface (human), sequence (Q01973 30-937): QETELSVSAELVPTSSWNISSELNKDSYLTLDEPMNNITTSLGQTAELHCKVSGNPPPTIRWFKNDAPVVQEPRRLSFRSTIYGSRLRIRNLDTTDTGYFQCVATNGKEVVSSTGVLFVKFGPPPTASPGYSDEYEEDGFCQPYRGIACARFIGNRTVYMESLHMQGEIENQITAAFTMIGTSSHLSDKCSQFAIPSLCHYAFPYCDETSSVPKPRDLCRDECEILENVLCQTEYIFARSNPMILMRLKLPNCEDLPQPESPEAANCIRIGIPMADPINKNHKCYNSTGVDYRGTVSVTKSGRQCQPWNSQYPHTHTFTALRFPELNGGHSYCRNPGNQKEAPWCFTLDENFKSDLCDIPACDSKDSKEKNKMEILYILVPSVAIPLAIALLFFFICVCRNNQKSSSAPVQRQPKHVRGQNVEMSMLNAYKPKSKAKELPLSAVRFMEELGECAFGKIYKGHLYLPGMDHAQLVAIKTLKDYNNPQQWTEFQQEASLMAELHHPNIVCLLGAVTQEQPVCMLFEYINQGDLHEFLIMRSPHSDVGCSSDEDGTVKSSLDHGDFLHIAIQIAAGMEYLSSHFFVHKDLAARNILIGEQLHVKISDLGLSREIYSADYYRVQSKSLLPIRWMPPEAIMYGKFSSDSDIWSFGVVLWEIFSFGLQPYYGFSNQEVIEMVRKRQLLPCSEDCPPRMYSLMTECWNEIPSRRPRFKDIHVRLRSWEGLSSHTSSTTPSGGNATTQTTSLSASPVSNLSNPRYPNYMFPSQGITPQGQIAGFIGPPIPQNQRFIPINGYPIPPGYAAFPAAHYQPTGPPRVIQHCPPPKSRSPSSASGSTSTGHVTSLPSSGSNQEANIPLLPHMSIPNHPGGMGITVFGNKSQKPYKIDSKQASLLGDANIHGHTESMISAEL

2A2-G5-PNU (antibody)
IC50, in vitro cell killing of 697 cells: 0.125 µg/mL
IC50, in vitro cell killing of A549 cells: 76.8 µg/mL
IC50, in vitro cell killing of HS 578T cells: 1.78 µg/mL
IC50, in vitro cell killing of HT-29 cells: 19.8 µg/mL
IC50, in vitro cell killing of MDA-MB-468 cells: 0.727 µg/mL
